B1: TPR t1 (parent)
chain: GACCAAUCUGCCCUCAGAGCUCGAGAACAUCUUCGGAUGCAGAGGAGGCAGGCUUCGGUGGCGCGAUAGCGCCAACGUCCUCAACCUCCAAUGCAUCCCACCACAUGAUGAUGCCUGAAGAGCCUUGGUUUUUUG

Variants of: B1
Assay: polymerase ribozyme fitness, log enrichment relative to wild type (log ratio); higher = more active; in vitro selection for triplet polymerase activity
How it was run: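 Input and output libraries were sequenced on Illumina after a single in vitro selection round, run in triplicate on PCR-built, transcribed mutant libraries of each subunit of a heterodimeric triplet polymerase ribozyme. Selection annealed libraries to a biotinylated primer, the partner subunit and triplets, incubated them frozen at −7 °C, then gel-excised extended constructs for streptavidin-bead capture and RT-PCR. Genotypes with ≥10 input reads and ≥1 read per output were kept. Fitness is the logarithm, taken in base 2, of genotype enrichment divided by wild-type enrichment, using inverse-variance-weighted replicate averages.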

| Variant | polymerase ribozyme fitness (log ratio) |
| --- | --- |
| GACCAAUCUGCCCUCAGAGCUCGAGAACAUCUUCGGAUGCAGAGGAGGCAGGCUUCGGUGGCGCGAUAGCGCCAACGUCCUCAACCUCCAAUGCAUCCCACCACAUGAUGAUGCCUGAAAAGCCUUGGUUUCUUG | 0.977 |
| GACCAAUCUGCCCUCAGAGCUCGAGAACAUCUUCGGAUGCAGAGGAGGCAGGCUUCGGUGGAGCGAUAGCGCCAACGACCUCAACCUCCAUUGCAUCCCACCACAUGAUGCUGCCUGAAGAGCCUUGGUUUUUUG | -4.78 |
| GACCAAUCUGCCCUCAGAGUUCGAGAACAUCUUCGGAUGCAGAGGAGGCAGGCUUCGGUGGCGCGAUAGCGUCAACGACCUCAACCUCCAAUGCAUCCCACCACAUGAUGGUGCCUGAAGAGGCUUGGUUUUUUC | -3.01 |
| GACCAAUCUGCCUUCAGAGCUCGAGAACAUCUUCGGAUGCAGAGGGUGCAGGCUUCGGUGGCGCGAUAGCGCCAACGUCCUAAACCUCCAAUGCAUCCCACCACAUGAUGAUGCCUGAAGAGCCUUGGUUUUUUG | -1.52 |
| GACCAAUCUGCCCUCAGAGCUCGAGAACAUCUUCGGAUGCAGAGGAGGCAGGCUUCGGUGGCGCGAUAGCGCCAAUGUCCUCAACCUCCAAUGCAUCCCACCACAUGAUGAUGCCUGAAGAGCCUUAGUUUUUUG | -1.52 |
| GACCAAUCUGCCCUCAGAGCUCGAGAACAUCUUCGGAUGCAGAGGAGGCAGGCUUCGGUGCCGCGAUAGCGCCAACGUCCUCAACCUCCAAUGCAUCCCACCACAUGAUGAUGCCUGAAGAGCCUAGGUUUUUUG | -2.98 |
| GACCAAUCUGCCCUCAGAGCUCGAGAACAUCUUCGGAUGCUGAGGAGGCAGGCUUCGGUGGCGCGAUAGCGCCAACGCCCUCAACCUCCAAUGCAUCCCACCACAUGAUGAUGCCUGAAGAGCCUUGGUUUUUUG | -1.1 |
| GACCAAUCUGCCCUCAGAGCUCGAGAACAUCUUCGGAUGCAGACGAGGCAGGCUUCGGUGGGGCGAUAGCGCCAACGUCCUCAACCUCCAAUGCAUCCCACCACAUGAUGAUGCCUGAAGAGCCUUGGUUUAUUG | -2.39 |
| GACCAAUCUGCCCUCAGAGCUCGAGAGCAUCUUCGGAUGCAGAGGAGGCAGGCUUCGGUGGCGCGAUAGCGCCAACGUCCUCAACCUCAAAAGCAUCACACCACAUGAUGCUGCCUGAAGAGCCUUGGUUUUUUG | -6.08 |
| GACCAAUCUGCCCUCAGAGCUCGAGAACAUCUUCGGAUGCAGAGGAGGCAAGCUUCGGUGGCGCGAUAGCGCCAACGUCCUCAACCUCUAAUGCAUCCCACCACAUGAUGAUGCCUGAAGAGCCUUGGUAUUUUG | -3.01 |
| GACCAAUCUGCCCUCAGAGCUCGAGAACAUCUUCGGAUGCAGAGGAGGCAGGCUUCGGUGGCGCGAUAGCGCCAACGUCCUCGACCUCCAAUGCAUCCCACCACAUGAUAAUGCCUGAAGAGCCUUGGUUUUUUG | -1.35 |
| GACCAAUCUGCCCUCAGAGCUCGAGAACAUCUUCGGAUGCAGAGGAGGCAGGCUUCGGUGGCGCGAUAGCGGCAACGUCCUCAACCUCCAAUGCACCCCACCACAUGAUGAUGCCUGAAGAGCCUUGGUUUUUUG | -1.25 |
| GACCAAUCUGCCCUCAGAGCUCGGGAACAUCUUCGGAUGCAGAGGAGGCAGGCUUCGGUGGCUCGAUAGCGCCAACGUCCUCAACCUCCAAUGCAUCCCACCACAUGAUGAUGCCUGAAGAGCCUUGGUUUUUUG | -3.19 |
| GACCAAUCUGCCCUCAGAGCUCGAGAACAUCUUAGGAUGCAGAGGAGGCAGGCUUCGGUGGUGCGAUAGCGCCAACGUCCUCAAGCUCCAAUGCAUCCCACCACAUGAUGAUGCCUGAAGAGCCUUGGUCUUUUG | -2.75 |
| GACCAAUCUGCCCUCAGAGCUCGAGAACAUCUUCGGAUGCAGGGGAGGCAGGCUUCGGUGGCGCGAUAGCGCCAACGUCCUGAACCUCCAAUGCAUCCCACCACAUGAUGAUGUCUGAGGAGCCUUGGUUAUUUG | -2.01 |
| GACCAAUCUGCCAUCAGAGCUCGAGAACAUCUUCAGAUGCAGAGGAGGCAGGCUUCGGUGGCGCGAUAGCGCCAACGUCCUCAACCUCCAAUGCAUCCCACCACAUGAUGAUGCCUGAAGAGCGUUGGUUUUUUG | -3.52 |
| GACCAAUGUACCCUCAGAGUUCGUGAACAUCUUCGGAUGCAGAGGAGGUAGGCUUCGGUGACGCGAUAGCGCCAACGUCGUCAACCUCCAAUGCAUCCCACCACAUGAUGAUGCCUGAAUAGCCUUGGUUUUUUG | -7.85 |
| GACCAAUCUGCCCUCAGAGCUCGAGAACAUCUUCGGAUGCAGAGGAGGCAGGCUUCGGUUGCGCGAUAGCGCCAACGUCCUCUACCUCCAAUGCAUCCCACCACAUGCUGAUGGCUCAAGAGCCUUGGUUUUUUG | -5.39 |
| GACCAAUCUGCCCUCAGAGCUCGAGAACCUCUUCGUAUGCAGAGUAGGCAGGCUUCGGUGGCGCGAUAGCGCCAACGUCCUCAACCUCCAAUGCAUCCCACCACAUGAUGAUGCCUGAAGAGCCUUGGUUUUUUG | -4.64 |
| GACCAAUCUGCCCUCAGAGCUCGAGAACAUCUUCGGAUGCAGAGGCGGUAGGCUUCGGUGGCGCGAUAGCGCCAACGUCCUCAACCUCCAAUGCAUCCCACCACAUGAUGUUGCCUGAAGAGCCUUGGUUUUGUG | -5.19 |
| GACCAAUCUGCCCUCAGAGCUCGAGAACAUCUUCGGAUGCAGAGGAAGCAGGCUUUGGUGGCGCGAUAGCGCCAACGUCCUCAACCUCCAAUGCAUCCCACCACAUGAUGAUGCCUGAAGAGCCUUGGUUUUUUG | 0.000278 |

— the RNAGym collection of RNA variant scans (doi:10.1073/pnas.2313332121)
